Measurements taken from patent US20110097715, “METHOD FOR PURIFYING OR DETECTING A TARGET PROTEIN” (LFB - BIOTECHNOLOGIES, published 2011).

How the values were obtained:
[1] = target: rabbit plasma-derived factor VII (Oryctolagus cuniculus, UniProt P98139 P98139:40-444); experiment: SPR; complete absence of binding at 50-400 nM; same buffer (CaCl2 2 mM); conditions: tags: American Diagnostica; label: 3'-biotin
Description: (§1) This aptamer is modified at the 3′-end thereof by grafting a biotin. Nucleotide bases in bold (SEQ no 1) are 2′O-methylated, which makes it possible to stabilize the aptamer by making it more resistant to nucleases. The aptamer was then immobilized onto an avidin-containing SA chip (Biacore GE). The aptamer was thus immobilized in an oriented manner through the 3′-end thereof with an immobilization rate of 2700 RU (where 1 RU does approximately correspond to 1 pg of immobilized product per mm²).
Rabbit plasma-derived factor VII (American Diagnostica) was diluted in the same buffer as in Example 1 at concentration levels of 50, 100 200, 400 nM, thereafter was injected under the same conditions as in Example 1 into the same chip containing the immobilized aptamer.

[2] = target: human plasma-derived factor VII (HP FVII) (Homo sapiens, UniProt P08709 P08709:61-466); experiment: SPR; Hepes 20 mM pH 8, NaCl 50 mM, CaCl2 2 mM, BSA 0.01%; aptamer immobilized via 3'-biotin on SA chip; allosteric binding model; FVII 50-400 nM; conditions: tags: plasma-derived, purity 99%; label: 3'-biotin
Sequence of human plasma-derived factor VII (HP FVII) (P08709 61-466, one chain of several): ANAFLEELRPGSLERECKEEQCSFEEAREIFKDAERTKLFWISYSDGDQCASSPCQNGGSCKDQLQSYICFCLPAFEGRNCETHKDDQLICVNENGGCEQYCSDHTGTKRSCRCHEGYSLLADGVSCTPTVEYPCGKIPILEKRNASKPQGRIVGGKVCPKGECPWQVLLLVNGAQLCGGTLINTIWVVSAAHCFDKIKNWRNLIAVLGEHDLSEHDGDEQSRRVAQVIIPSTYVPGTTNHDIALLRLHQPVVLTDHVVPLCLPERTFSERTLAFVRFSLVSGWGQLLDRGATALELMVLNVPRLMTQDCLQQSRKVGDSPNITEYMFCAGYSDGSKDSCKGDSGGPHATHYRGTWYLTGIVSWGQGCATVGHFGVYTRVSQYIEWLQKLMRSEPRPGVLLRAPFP
Description: as §1
Some purified, human plasma-derived factor VII (HP FVII, purity: 99%) was diluted in run buffer (Hepes 20 mM pH=8, NaCl 50 mM, CaCl₂ 2 mM and BSA 0.01%) so as to obtain four samples with human plasma-derived factor VII concentration levels of 50, 100, 200 and 400 nM. Each sample was injected sequentially into the same immobilized aptamer-containing chip through a biotin-streptavidin interaction. Controls are obtained by injecting blanks which only contained the run buffer. All injections are performed at a flow rate of 20 μl/min for 120 sec, after injection of the run buffer into the chip at the same flow rate for 240 sec. […] A binding to the immobilized aptamer generates a signal increase expressed in resonance unit (RU) recorded by the device (FIG. 1). […] The modelling of the recorded interactions was made by means of the Biaevaluation software (GE).

Sequence of rabbit plasma-derived factor VII (P98139 40-444, one chain of several): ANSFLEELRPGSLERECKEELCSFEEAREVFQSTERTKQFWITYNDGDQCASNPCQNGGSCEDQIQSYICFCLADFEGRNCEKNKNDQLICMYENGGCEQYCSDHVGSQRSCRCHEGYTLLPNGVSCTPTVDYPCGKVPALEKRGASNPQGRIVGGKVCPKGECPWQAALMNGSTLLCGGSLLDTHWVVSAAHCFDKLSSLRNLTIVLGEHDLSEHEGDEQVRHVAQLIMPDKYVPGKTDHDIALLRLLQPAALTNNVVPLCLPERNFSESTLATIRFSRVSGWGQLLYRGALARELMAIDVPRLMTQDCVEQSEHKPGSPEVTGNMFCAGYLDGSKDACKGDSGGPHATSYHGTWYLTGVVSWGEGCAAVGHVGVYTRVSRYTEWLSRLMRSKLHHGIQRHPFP

B1: anti-human FVII aptamer (SEQ no 1) (ssRNA)
RNA: GGGAGAGAGGAAGAGGGAUGGGAGCCUAUGUAACAGAUGCAGAUCCCUAGUCGUCCCAACACCAUAAC
modifications: 2'-OMe at bases shown in bold in the patent (positions not recoverable from text); 3'-biotin
B1 was tested, and the binding result [1] was “no binding” and the Kd [2] was 1400 nM.
